Source: the DeepSol protein solubility set

test: soluble on expression in E. coli; label from the status in PepcDB or PDB records

Q: With “MVEISKRIISTFGKTNAHFKLITENDRVLVGLSGGKDSLLLATLLARLARHAPFKFEFKALTVDYGIGEDFSYLQNYCAENGIPHEVFKTNIMEVMQEKRRENSSYCSFCSRLRRGALYSKALEGGYNKLALGHHLDDAAESFFMNFSYNGAIRSMPPIYRAYNGLWVIRPLIWLRERQMVDFVLKNNLQTPLCNC” as the sequence, how does the “soluble on expression in E. coli” value read?
A: not soluble

Q: For “MVEKHLLEFLEKLQFLISKNVKISHYGIENVKKICGVDIAYKGNLGFSVGVSMDINSGDYNYKSYVGEVNFPYIPGFLFMREAPLMIKAIEGLDCHLLLVDGHGIAHPRKSGIAAVIGVLLDFPTIGVAKSRLTGDLVNESEITYVYLNGEKVGVKFGRYFYSPGNKVDLQDCIELGKRGYPKVLKIADMLTKKIKKE”, which “soluble on expression in E. coli” value is on record?
A: soluble

Q: With “MVELTPAAIQELERLQTHGVRRGQAAILRIQVQPSECGDWRYDLALVAEPKPTDLLTQSQGWTIAIAAEAAELLRGLRVDYIEDLMGGAFRFHNPNASQTCGCGMAFRVSRS” as the sequence, how does the “soluble on expression in E. coli” value read?
A: soluble

Q: Which “soluble on expression in E. coli” value does the source give for “MVETLPALEIGEDERLDLENLATGAFFPVKGFMTREEALSVAHEMRLPTGEVWTIPILLQFREKPRVGPGNTVALLHGGERVALLHVAEAYELDLEALARAVFGTDSETHPGVARLYGKGPYALAGRVEVLKPRPRTPLEKTPEEVRAFFRQRGWRKVVAFQTRNAPHRAHEYLIRLGLELADGVLVHPILGAKKPDDFPTEVIVEAYQALIRDFLPQERVAFFGLATPMRYAGPKEAVFHALVRKNFGATHFLVGRDHAGVGDFYDPYAAHRIFDRLPPLGIEIVKVGAVFHCPLCGGIASERTCPEGHREKRTAISMTKVRALLREGKAPPSELVRPELLPILRRGV” here?
A: soluble

Q: With “MVFDKLLEQAGINLEFEDKEIKDSDYLGDVSDLIKIAVIGVGGSGNNTISRLYDLGVQGADLIAMNTDAQHLHQIKAHKKLLLGKSITHGKGSGGDPRIGYRAAEASASEIADIVKDYDLIFLTAGMGNGTGTGATPVIARIIKETARNNGLPQEPLVISVVTFPFKMEGKVRIEKAKAGIEMLLEYSDTVIIIQNDKLIELVPKLPIQVAFRFADEIIARMVKGIVETIKLPSMVNIDYADIYSVMKGGGPALIGIGESDSNNRAVDAVMEALNNKMLDIEFGSGDKALVHFTVGPDVSLEEITKAMEIVYERLGEKSEIKWGAMIEEDMGKTVRAMVIMTGVRSPQILGNINVNALTYSSSSLVVPRDSKIMSESKVDEIFSSIDPRASKLRKGNNSSRINKIFKDLGFYEL” as the sequence, how does the “soluble on expression in E. coli” value read?
A: soluble

Q: For “MVFDRQMKRGQRDWAVRQPDFKAAQYLKEEIGWRVADKVFDLTKFNPLVLDIGCGVGHIAPHLIKENVGKIIQVDMSGGMAQSSAKCEDPEVIVERRTVDEETLDGFHENQFDLLLTSMSAHWINHLPQWMRKCHDIVKPDCPFIGSMLAEDTLYELRCSLQLAELERIGGVSSHISPFVKTQDIGGLLSSAGFDMITLDSDEIQVGYPNMFALMYDLQLMGESHCTHRRNPTIRRDVLVAAEAIYQSMYSSDGKYPATFKIVSFIGWKPGPNMPKAAKRGSQTVSLKDIGKIVEDPEMMRKMSEKDGVDKKK”, which “soluble on expression in E. coli” value is on record?
A: not soluble

Q: Which “soluble on expression in E. coli” value does the source give for “MVFFTCNACGESVKKIQVEKHVSNCRNCECLSCIDCGKDFWGDDYKSHVKCISEGQKYGGKGYEAK” here?
A: soluble

Q: For “MVGGGGVKFIEMDIRDKEAYELAKEWFDEVVVSIKFNEEVDKEKLREARKEYGKVAILLSNPKPSLVRDTVQKFKSYLIYVESNDLRVIRYSIEKGVDAIISPWVNRKDPGIDHVLAKLMVKKNVALGFSLRPLLYSNPYERANLLRFMMKAWKLVEKYKVRRFLTSSAQEKWDVRYPRDLISLGVVIGMEIPQAKASISMYPEIILKRLKY”, which “soluble on expression in E. coli” value is on record?
A: soluble

Q: For “MVGGLTHVDEKGVKMVEIGYKDVVFRKAVAKGRIKLKPETVKLIKEGKIEKGNVLATAQIAGILAVKRTPELIPLCHPIPITGVDITFDFGEDYIEVTCEVRAYYKTGVEMEALTGVTVALLAIWDMVKAVEKDEKGQYPYTRIENVHVVEKVKTHNSQ”, which “soluble on expression in E. coli” value is on record?
A: soluble

Q: With “MVGGSLSPAFTIDEATSYINAVKEAFGADQPAKYREFLDIMLDLRANRVDLATVVPRMRELLKDHVNLLLRFNAFLPAEAKETFHDVRSYIYSLKESFRDEPAKYAQFLEILNDYSARRVDAPSAVARMTELMKDHRNLVLGFSVLLSTGDTKTTPLEAEPDNNKRIRVANFISKLKARFQGNDGHVYESFLEILTMYQQGNKSVNDLYQEVVALLQGHEDLVMEFSNVFKRTTGPSGSKSARDR” as the sequence, how does the “soluble on expression in E. coli” value read?
A: soluble

Q: Which “soluble on expression in E. coli” value does the source give for “MVGLADVAVLYSGGKDSNYALYWAIKNRFSVKFLVTMVSENEESYMYHTINANLTDLQARALGIPLVKGFTQGEKEKEVEDLKRVLSGLKIQGIVAGALASKYQRKRIEKVAKELGLEVYTPAWGRDAKEYMRELLNLGFKIMVVGVSAYGLDESWLGRILDESALEELITLNEKYKVHVAGEGGEFETFVLDMPLFKYKIVVDKAKKVWEPCTSSGKLIIEEAHLESKLEHHHHHH” here?
A: soluble

Q: For “MVGSLLPSHATEFEKRLADACDFHQDVDGAVLGISRAKLITRPPRFLPWLIEEYGLGELTPYVPNLYDLIDQGLAWQRLRGSVAAIELGLKWLELSARFTPAWSGRAWWNSFQLDFDQLPEQSSLEAIEAIVDLSKSFRSDFRRSTYGYDVEATEGDMSHLDDSMLDFESGVRLTARDTLFSFGRTTQIKHTLTKEEGKLIGNWIDDVDEELSWNQIDYPWELANFPWCSVKKHERDILIAKWFQNRPLYLALRDLDNTLIGYRRCYAVQPVEQAVEGVYSHCGNRFNPSPTGTMLFLAARTDFEDVENKQAASVPLLVHGSLVEQTPLGKLWLGADELRGGVEILKTPINIPLRADVREQFKILLRF”, which “soluble on expression in E. coli” value is on record?
A: not soluble

Q: For “MVHIRLSFITFSLILFLVVDMVKIPKSHPRYWSLLYREKIIEGMEKGITAKAGLIAHGRGEAFDYLIGEKTIPPAETAMRAAIAKLLLAKHPVISVNGNVAALVPKETVELAKVLNAKLEINLFYRTEERVKKIAEVLYENGADEVLGINPTKRIPGLESERGKVDENGIWKADVILVPLEDGDRTEALCRMGKFVITVDLNPLSRSARMADITIVDNIVRAYPRMIELAKEMKSLPKEDLEKIVATYDNSKVLSEVLIHIRDRLTKLAEGGIWKKEKLEHHHHHH”, which “soluble on expression in E. coli” value is on record?
A: not soluble

Q: Which “soluble on expression in E. coli” value does the source give for “MVIDFNRLNPGSTPATTGRTGSTAAGRPDATGADKAGQAATSAPKSGESVQISETAQNMQKVTDQLQTLPVVDNDKVARIKQAIADGTYQVDSERVASKLLDFESQR” here?
A: not soluble

Q: For “MVIELKNEKVTVQFKEFGGALSSIKDQDGIEYLWQGNPAYWSSQAPVLFPICGSLRNDKGIYTSKKHSHRYGSIPRHGLVRKKNFRFEQLGKDSVVFTITPDKEMLMQYPYHFELKIIYTLKHTTIRTEYQVINKEKESIMPYFIGGHPGLNCPLFAGDRYEDYYLEFEKEETCTVPKSFPDTGLLDLQDRKIFLKGQKYLDLDYSLFTHDAITLDNLQSRSVSLRSKNHGGGLRLDFADFPYLILWSTANKSPFIALEPWSGLSTAVDESDYFEEKRNVSFVEPGQFDRNYFDITVLLEHHHHHH”, which “soluble on expression in E. coli” value is on record?
A: soluble

Q: Which “soluble on expression in E. coli” value does the source give for “MVILLQFYKEENFKKTEIGEIPEDWEVRELKDILEVIRNGLTAKQNKDKIGYPITRIETISDSKIDITKLGYVEDIKQEDIAKYRLIIGDILFSHINSEEHIGKVAIYEGKPEFLLHGMNLLLLRPNKNKIEPYYLLYLLRHFKQKNIFKYIAKRAVNQSSINQTQLKHLKIPLPPLEEQKQIAKILSDFDNLIGTINKQIEVLNKAKKGMMKKLFTKGVFEHKSFKKSEIGEIPEDWEVVELGNEKYFKIIMGQSPPSSSYNKEGEGVPFLQGKAEFGNIYPNPVLYTNKPLKVVDDEDILISVRAPVGDVNIAPFKLCIGRGLAGIKSNKEKVDNFFVFYYLSYIKPKIEYLGGGAVFKAITKKDLESIKIPLPPLEEQKAIAKRLKAIDDLIEIKRKEKEQIEKAKKKIMNLLLTGKIRVKT” here?
A: soluble

Q: With “MVIVINYKTYNESIGNRGLEIAKIAEKVSEESGITIGVAPQFVDLRMIVENVNIPVYAQHIDNINPGSHTGHILAEAIKDCGCKGTLINHSEKRMLLADIEAVINKCKNLGLETIVCTNNINTSKAVAALSPDCIAVEPPELIGTGIPVSKANPEVVEGTVRAVKEINKDVKVLCGAGISKGEDVKAALDLGAEGVLLASGVVKAKNVEEAIRELIKFI” as the sequence, how does the “soluble on expression in E. coli” value read?
A: soluble

Q: Which “soluble on expression in E. coli” value does the source give for “MVKAQLQKLIEQVATEHDLPERVVERALKNAIITAIRKEKKIRDELEVEFTDEGIKVYVVRRKGNKKFKFPLDISPEDLNRLAAYAAKEEFYKELERAEQERGYLEFKELEGEIVYGIVRKVLENGDVIVDLGRIDAILPKREQLPTDNFKTGDKVKALLLEVRKRRGEPVLILSRTHPNFLRKLLEQEVPEIKEGLVEIKAVARIPGERAKVAVEAKEMKMDPVGIVVGLKGMRIQKVSEELGGEKIDVIRWSDDIAELIKRALAPAHPEKIKLFPYEKRAEVAVPEEELSLAIGKKGINVKLASKLTGWHIDVLSTKDFEKLEELRKKEDEGQTS” here?
A: soluble

Q: With “MVKFIESELILLKKEVDEMWTLVYNQLDRAGEAVMTLDKELAQQVMVRERRVNAFELKIDSDIEDIIALYNPVAIDLRFVLAMLKINTNLERLGDFAEGIARFVIRCKEPVLDADLLARLRLGEMQAEVLSMLELAKRALNEENIEMATAVFGKDNLLDDINAEATGILADYIREHPETAHTCVDLVGVFRKLERSGDHITNIAEEIVFFIDAKVLKHSGKVDENYPKS” as the sequence, how does the “soluble on expression in E. coli” value read?
A: not soluble

Q: With “MVKKLYIKTNGCQMNEYDSSKMAEVLYASHGLVKTDQVEDADVILLNTCSIREKAQEKVFSQLGQWREYKAKNPHVLIGVGGCVASQEGSDIIKRAPFVDIVFGPQTLHRLPALLNERLEKNKSVVDISFPEIEKFDHLPAPRAEGPTAFVSIMEGCSKYCSFCVVPYTRGEEISRPFDDVLAECYQLASQGVREINLLGQNVNDYRGIMDNGDIADLALLIHYIAAIDGIGRIRFTTSHPLAFSENLINAYAEVPELANHLHLPVQSGSDRILSLMKRGYTALEFKSKIRKLRKIRPDIRLSTDIIVGFPGETDKDFQDTMDLVHEIGFDTSFSFIYSPRPGTPAANLPDDTPMEIKKQRLQILQNRLLMNAARYSESMIGSKQKILVTGFSKKSSQQLSGRTECNRVVNFDGPPHLIGQFIDVQISDALPNSLRGRLLEKEMQPALEHHHHHH” as the sequence, how does the “soluble on expression in E. coli” value read?
A: soluble

Q: Which “soluble on expression in E. coli” value does the source give for “MVKSIENVKLTKGLFYNSQKKGNDVILALDIDRLLAPYYEAANLPPKKRSYGGWEEREIRGHSLGHWLSAAAAMYETTGDKALLERIDRAVQELATIQDDVGYVGGVKRAHFDEMFSGEFQVGHFNIAGTWVPWYNLHKLFAGLIDVHQLTGHSLALTVVTKLADWAKKGTDQLTDDQFQRMLICEHGGMNEAMADLYTLTGHKDYLQLAIRFCHWAVLEPLANGIDELEGKHANTQIPKVIGAAKLFEITGDDTYRAIAEFFWRQVTNDRSYIIGGNSNSEHFGPANKETLGVETAETCNTYNMLKLTEHLFRWNRSSQLMDYYEKALYNHILASQDPDSGMKTYFVSLQPGHFKVYSSLEESFWCCFGTGLENPARYTRTIYDRDDRHIYVNLFMASEIHLKDLQVQIRQETNFPETDRTKLTFVKADGVSIKLHIRVPEWVAGPVTARINGKETFSESGADYLTIEREWQKGDEIEVHLPMELRIYEAKDDSHKVGIMYGPIVLAGTFGKDHFPLEHHHHHH” here?
A: not soluble

Q: Which “soluble on expression in E. coli” value does the source give for “MVKSVLCFGDSLTWGSNAETGGRHSHDDLWPSVLQKALGSDVHVIHEGLGGRTTAYDDHTGDCDRNGARLLPTLLHSHAPLDMVIIMLGTNDMKPAIHGSAIVAMKGVERLVKLTRNHVWQVSDWEAPDVLIVAPPQLCETANPFMGAIFRDAIDESAMLASVYRDLADELDCGFFDAGSVARTTPVDGVHLDAENTRAIGRGLEPVVRMMLGL” here?
A: soluble
